Numbered stars: 1 amine (or outer) side, 2 acyl side, 3 side chain; on linkers, the order of the positions; unused ones are H or OH. Bridge positions count the residues as written; N and C are the ends. Side chains are listed from the residue outwards. Ends that are not written are not given here. * marks the point of attachment. C20 diacid = O=C(O)CCCCCCCCCCCCCCCCCCC(=O)*; γGlu = O=C(O)[C@H](CCC(=O)[*:2])N[*:1]; AEEA = NCCOCCOCC(=O)O
T1: rat amylin receptor (rat calcitonin receptor + rat RAMP 3) (rat, UniProt P32214 25-516; Q9JJ73 23-147)
T1 construct: whole, on cells; Used as membranes prepared from BHK tk'ts 13 cells transiently transfected with rat calcitonin receptor and rat RAMP 3 (Assay VI); also called rAmylin-R; rat amylin 3(a) receptor
T1 sequence (looked up) 1: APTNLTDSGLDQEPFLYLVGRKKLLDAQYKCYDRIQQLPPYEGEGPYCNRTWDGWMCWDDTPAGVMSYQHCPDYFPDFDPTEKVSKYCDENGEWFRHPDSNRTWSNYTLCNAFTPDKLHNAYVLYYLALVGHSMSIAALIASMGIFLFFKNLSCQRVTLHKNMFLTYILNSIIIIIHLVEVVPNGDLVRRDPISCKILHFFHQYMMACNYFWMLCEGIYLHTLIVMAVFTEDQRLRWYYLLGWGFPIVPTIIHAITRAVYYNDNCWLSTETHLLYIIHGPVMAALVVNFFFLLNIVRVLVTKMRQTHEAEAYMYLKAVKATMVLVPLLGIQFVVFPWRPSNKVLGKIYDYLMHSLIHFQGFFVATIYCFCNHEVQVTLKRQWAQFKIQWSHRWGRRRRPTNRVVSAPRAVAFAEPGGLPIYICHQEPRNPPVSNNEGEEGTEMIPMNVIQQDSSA
T1 sequence (looked up) 2: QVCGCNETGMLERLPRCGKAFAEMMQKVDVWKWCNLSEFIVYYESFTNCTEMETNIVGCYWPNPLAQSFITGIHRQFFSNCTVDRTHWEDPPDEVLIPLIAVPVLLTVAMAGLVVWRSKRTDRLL

T2: rat calcitonin receptor (rat, UniProt P32214 25-516)
T2 construct: whole, on cells; Used as membranes prepared from BHK tk'ts 13 cells transiently transfected with the rat calcitonin receptor (Assay VIII); also called rCTR; rat calcitonin (a) receptor
T2 sequence (looked up): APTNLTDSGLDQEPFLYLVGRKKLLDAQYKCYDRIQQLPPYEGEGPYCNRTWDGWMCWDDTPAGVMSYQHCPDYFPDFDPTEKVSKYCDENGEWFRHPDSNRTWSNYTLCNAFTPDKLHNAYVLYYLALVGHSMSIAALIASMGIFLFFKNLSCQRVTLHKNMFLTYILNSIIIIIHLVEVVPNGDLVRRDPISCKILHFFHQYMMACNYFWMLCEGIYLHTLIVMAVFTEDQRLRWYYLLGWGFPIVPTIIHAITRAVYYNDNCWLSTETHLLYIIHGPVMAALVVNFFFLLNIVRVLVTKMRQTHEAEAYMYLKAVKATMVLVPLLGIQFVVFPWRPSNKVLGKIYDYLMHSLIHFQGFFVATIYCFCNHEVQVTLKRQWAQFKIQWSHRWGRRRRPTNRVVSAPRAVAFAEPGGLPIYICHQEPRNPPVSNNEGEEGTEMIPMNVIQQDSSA

T3: human calcitonin receptor (human, UniProt P30988 25-474)
T3 construct: whole, on cells; Used as membranes prepared from a BHK tk'ts 13 cell line stably transfected with the human calcitonin receptor (Assay VII); also called hCTR; hCT
T3 sequence (looked up): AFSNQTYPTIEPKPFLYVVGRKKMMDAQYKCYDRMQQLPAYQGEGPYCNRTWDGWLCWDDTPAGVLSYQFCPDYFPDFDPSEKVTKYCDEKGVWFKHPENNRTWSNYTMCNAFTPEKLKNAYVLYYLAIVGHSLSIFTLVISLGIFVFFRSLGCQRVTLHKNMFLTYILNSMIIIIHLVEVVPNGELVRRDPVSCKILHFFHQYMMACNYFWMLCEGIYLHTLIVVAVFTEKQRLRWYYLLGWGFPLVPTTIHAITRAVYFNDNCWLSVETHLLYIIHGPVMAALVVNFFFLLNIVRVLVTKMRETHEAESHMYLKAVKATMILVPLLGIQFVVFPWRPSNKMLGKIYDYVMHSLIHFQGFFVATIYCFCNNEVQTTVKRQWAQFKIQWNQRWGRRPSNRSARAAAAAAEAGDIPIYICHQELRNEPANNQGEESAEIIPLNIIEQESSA


Tests used:
[1] = biological target: T1, rat amylin receptor (rat calcitonin …); assay: SPA competition with 125I-rat amylin, membranes of BHK cells with rat CTR + rat RAMP3 (Assay VI)
rat calcitonin receptor [2] = biological target: T2, rat calcitonin receptor; assay: SPA competition with 125I-calcitonin, membranes of BHK cells with rat CTR (Assay VIII)
[3] = biological target: T3, human calcitonin receptor; assay: IC50 on human CTR divided by IC50 on human amylin receptor (Assays VII/V)
Procedure, shortened: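 Competition binding by SPA uses membrane preparations (35 ng/μL final) in pH 7.4 Hepes buffer with 1 mM CaCl2 and 5 mM MgCl₂. Incubation lasts 120 min at 25° C, and IC₅₀ comes from one-site fitting.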

rat calcitonin receptor [4] = biological target: T2, rat calcitonin receptor; assay: IC50 on rat CTR divided by IC50 on rat amylin receptor (Assays VIII/VI)

Row | Binder | IC50 [1] [nM] | IC50 (rat calcitonin receptor [2]) [nM] | Ratio hCT/hAmylin binding [3] | Ratio rCT/rAmylin binding (rat calcitonin receptor [4])
1 | K([AEEA-γGlu-C20 diacid])CNTATCATQRLATFLRHSSPNFGAIPSSTPVGSNTY-NH2 (disulfide 2-7; N-terminus assumed; SMILES CC[C@H](C)[C@H](NC(=O)[C@H](C)NC(=O)CNC(=O)[C@H](Cc1ccccc1)NC(=O)[C@H](CC(N)=O)NC(=O)[C@@H]1CCCN1C(=O)[C@H](CO)NC(=O)[C@H](CO)NC(=O)[C@H](Cc1c[nH]cn1)NC(=O)[C@H](CCCNC(=N)N)NC(=O)[C@H](CC(C)C)NC(=O)[C@H](Cc1ccccc1)NC(=O)[C@@H](NC(=O)[C@H](C)NC(=O)[C@H](CC(C)C)NC(=O)[C@H](CCCNC(=N)N)NC(=O)[C@H](CCC(N)=O)NC(=O)[C@@H](NC(=O)[C@H](C)NC(=O)[C@@H]1CSSC[C@H](NC(=O)[C@@H](N)CCCCNC(=O)COCCOCCNC(=O)CC[C@H](NC(=O)CCCCCCCCCCCCCCCCCCC(=O)O)C(=O)O)C(=O)N[C@@H](CC(N)=O)C(=O)N[C@@H]([C@@H](C)O)C(=O)N[C@@H](C)C(=O)N[C@@H]([C@@H](C)O)C(=O)N1)[C@@H](C)O)[C@@H](C)O)C(=O)N1CCC[C@H]1C(=O)N[C@@H](CO)C(=O)N[C@@H](CO)C(=O)N[C@H](C(=O)N1CCC[C@H]1C(=O)N[C@H](C(=O)NCC(=O)N[C@@H](CO)C(=O)N[C@@H](CC(N)=O)C(=O)N[C@H](C(=O)N[C@@H](Cc1ccc(O)cc1)C(N)=O)[C@@H](C)O)C(C)C)[C@@H](C)O, Analogue of human amylin; also called compound 75) | 4.03 | 442 | 91.4 | 110
2 | K([AEEA-γGlu-C20 diacid])CNTATCATQRLAKFLRHSSPNFGAIPSSTPVGSNTY-NH2 (disulfide 2-7; N-terminus assumed; SMILES CC[C@H](C)[C@H](NC(=O)[C@H](C)NC(=O)CNC(=O)[C@H](Cc1ccccc1)NC(=O)[C@H](CC(N)=O)NC(=O)[C@@H]1CCCN1C(=O)[C@H](CO)NC(=O)[C@H](CO)NC(=O)[C@H](Cc1c[nH]cn1)NC(=O)[C@H](CCCNC(=N)N)NC(=O)[C@H](CC(C)C)NC(=O)[C@H](Cc1ccccc1)NC(=O)[C@H](CCCCN)NC(=O)[C@H](C)NC(=O)[C@H](CC(C)C)NC(=O)[C@H](CCCNC(=N)N)NC(=O)[C@H](CCC(N)=O)NC(=O)[C@@H](NC(=O)[C@H](C)NC(=O)[C@@H]1CSSC[C@H](NC(=O)[C@@H](N)CCCCNC(=O)COCCOCCNC(=O)CC[C@H](NC(=O)CCCCCCCCCCCCCCCCCCC(=O)O)C(=O)O)C(=O)N[C@@H](CC(N)=O)C(=O)N[C@@H]([C@@H](C)O)C(=O)N[C@@H](C)C(=O)N[C@@H]([C@@H](C)O)C(=O)N1)[C@@H](C)O)C(=O)N1CCC[C@H]1C(=O)N[C@@H](CO)C(=O)N[C@@H](CO)C(=O)N[C@H](C(=O)N1CCC[C@H]1C(=O)N[C@H](C(=O)NCC(=O)N[C@@H](CO)C(=O)N[C@@H](CC(N)=O)C(=O)N[C@H](C(=O)N[C@@H](Cc1ccc(O)cc1)C(N)=O)[C@@H](C)O)C(C)C)[C@@H](C)O, Analogue of human amylin; also called compound 74) | 4.89 | 109 | 101 | 22.3

Stronger by IC50 [1], values ahead:

Row | IC50 [1] [nM] | IC50 (rat calcitonin receptor [2]) [nM] | Ratio hCT/hAmylin binding [3] | Ratio rCT/rAmylin binding (rat calcitonin receptor [4]) | Binder
3 | 0.45 | 46.8 | 65.3 | 104 | K([AEEA-γGlu-C20 diacid])CNTATCATQRLAHFLRHSSPNFGAIPSSTNVGSNTY-NH2 (disulfide 2-7; N-terminus assumed; SMILES CC[C@H](C)[C@H](NC(=O)[C@H](C)NC(=O)CNC(=O)[C@H](Cc1ccccc1)NC(=O)[C@H](CC(N)=O)NC(=O)[C@@H]1CCCN1C(=O)[C@H](CO)NC(=O)[C@H](CO)NC(=O)[C@H](Cc1c[nH]cn1)NC(=O)[C@H](CCCNC(=N)N)NC(=O)[C@H](CC(C)C)NC(=O)[C@H](Cc1ccccc1)NC(=O)[C@H](Cc1c[nH]cn1)NC(=O)[C@H](C)NC(=O)[C@H](CC(C)C)NC(=O)[C@H](CCCNC(=N)N)NC(=O)[C@H](CCC(N)=O)NC(=O)[C@@H](NC(=O)[C@H](C)NC(=O)[C@@H]1CSSC[C@H](NC(=O)[C@@H](N)CCCCNC(=O)COCCOCCNC(=O)CC[C@H](NC(=O)CCCCCCCCCCCCCCCCCCC(=O)O)C(=O)O)C(=O)N[C@@H](CC(N)=O)C(=O)N[C@@H]([C@@H](C)O)C(=O)N[C@@H](C)C(=O)N[C@@H]([C@@H](C)O)C(=O)N1)[C@@H](C)O)C(=O)N1CCC[C@H]1C(=O)N[C@@H](CO)C(=O)N[C@@H](CO)C(=O)N[C@H](C(=O)N[C@@H](CC(N)=O)C(=O)N[C@H](C(=O)NCC(=O)N[C@@H](CO)C(=O)N[C@@H](CC(N)=O)C(=O)N[C@H](C(=O)N[C@@H](Cc1ccc(O)cc1)C(N)=O)[C@@H](C)O)C(C)C)[C@@H](C)O, Analogue of human amylin; also called compound 69)
4 | 0.283 | 50.3 | 51.7 | 178 | K([AEEA-γGlu-C20 diacid])CNTATCATQRLASFLRHSSPNFGAIPSSTPVGSNTY-NH2 (disulfide 2-7; N-terminus assumed; SMILES CC[C@H](C)[C@H](NC(=O)[C@H](C)NC(=O)CNC(=O)[C@H](Cc1ccccc1)NC(=O)[C@H](CC(N)=O)NC(=O)[C@@H]1CCCN1C(=O)[C@H](CO)NC(=O)[C@H](CO)NC(=O)[C@H](Cc1c[nH]cn1)NC(=O)[C@H](CCCNC(=N)N)NC(=O)[C@H](CC(C)C)NC(=O)[C@H](Cc1ccccc1)NC(=O)[C@H](CO)NC(=O)[C@H](C)NC(=O)[C@H](CC(C)C)NC(=O)[C@H](CCCNC(=N)N)NC(=O)[C@H](CCC(N)=O)NC(=O)[C@@H](NC(=O)[C@H](C)NC(=O)[C@@H]1CSSC[C@H](NC(=O)[C@@H](N)CCCCNC(=O)COCCOCCNC(=O)CC[C@H](NC(=O)CCCCCCCCCCCCCCCCCCC(=O)O)C(=O)O)C(=O)N[C@@H](CC(N)=O)C(=O)N[C@@H]([C@@H](C)O)C(=O)N[C@@H](C)C(=O)N[C@@H]([C@@H](C)O)C(=O)N1)[C@@H](C)O)C(=O)N1CCC[C@H]1C(=O)N[C@@H](CO)C(=O)N[C@@H](CO)C(=O)N[C@H](C(=O)N1CCC[C@H]1C(=O)N[C@H](C(=O)NCC(=O)N[C@@H](CO)C(=O)N[C@@H](CC(N)=O)C(=O)N[C@H](C(=O)N[C@@H](Cc1ccc(O)cc1)C(N)=O)[C@@H](C)O)C(C)C)[C@@H](C)O, Analogue of human amylin; also called compound 73)
